The target in experiment [1] is IgG (coating control in the ELISA binding assays). Nature of the experiment: ELISA; IgG coated, culture supernatant. Background: ELISA stands for enzyme-linked immunosorbent assay.
The target in experiment [2] is T1, mouseCD47, coated on ELISA plates (mouse) (UniProt Q61735).
T1 sequence (looked up): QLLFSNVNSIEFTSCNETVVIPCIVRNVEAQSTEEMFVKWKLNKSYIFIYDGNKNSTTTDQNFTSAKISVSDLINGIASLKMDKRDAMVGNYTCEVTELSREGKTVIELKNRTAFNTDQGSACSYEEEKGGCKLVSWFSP
The experiment can be described thus: ELISA; mCD47 coated, culture supernatant.

The source of these data is US20190336544A1.

B1: secreted anti-mCD47 scFv (αmCD47scFv-V5-HIS, SYN3161) (scFv, from a related filing)
scFv: QVKLLQSGAALVKPGASVKMSCQASGYSFTDYWVTWVKQSHGQSLEWIGEIYPSNTVTNFNDNFKGKATLTVDKSTSTAYMELSRLTSEDSAIYYCTRIGNSGYRVGWFIYWGQGTLVTVLSGGGGSGGGGSGGGGSDTVLTQSPALAVSPGERVTISCKASESVSSHMHWYQQKPGQQPKLLIYKASNLASGVPARFSGSGSGTDFTLTIDPVEADDTATYFCQQGWNGPFTFGAGTRLELKRADAAGSGELGGSGKPIPNPLLGLDSTGSGHHHHHH
In the case of B1, the ELISA signal (quantity not given) in experiment [1] was 0.067; in experiment [2], 0.527.
